Experimental data published in patent US20210324028A1 (Pfizer, published 2021).

T1: human IL-2Rβ (human, UniProt P14784 27-240, limits assumed)
T1 construct: also called hIL-2Rβ; IL-2 receptor beta
T1 sequence (looked up): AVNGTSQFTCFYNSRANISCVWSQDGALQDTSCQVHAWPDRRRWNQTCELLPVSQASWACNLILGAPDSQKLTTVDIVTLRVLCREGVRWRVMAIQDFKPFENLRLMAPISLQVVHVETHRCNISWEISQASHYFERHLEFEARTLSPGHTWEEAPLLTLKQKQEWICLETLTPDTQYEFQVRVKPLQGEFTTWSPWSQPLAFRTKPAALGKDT


Tests used:
human IL-2Rβ = molecular target: T1, human IL-2Rβ; assay: SPR, fusion captured
Procedure: (§1) Anti-human Fc sensor chips were prepared at 25° C. with a running buffer of 10 mM HEPES, 150 mM NaCl, 0.05% (v/v) Tween-20, pH 7.4. All surfaces of a Biacore CM4 sensor chip were activated with a 1:1 (v/v) mixture of 400 mM EDC and 100 mM NHS for 7 minutes, at a flow rate of 10 μL/min. An anti-human Fc reagent (Goat anti-human IgG Fc-γ specific, SouthernBiotech, Birmingham, Ala., Catalog #2014-01) was diluted to 50 μg/mL in 10 mM sodium acetate (pH 4.5) and injected on all flow cells for 7 minutes at 20 μL/min. All flow cells were blocked with 100 mM ethylenediamine in 200 mM Borate buffer pH 8.5 for 7 minutes at 10 μL/min.
(§2) All protein interaction experiments were performed at 37° C. using a running buffer of 10 mM HEPES, 150 mM NaCl, 0.05% (v/v) Tween-20, pH 7.4, 1 mg/mL BSA. Anti-PD-1-hIL-15 fusion proteins were captured at 10 μg/mL at a flow rate of 10 μL/min for 2 minutes. Different fusion proteins were captured in flow cells 2, 3 and 4. No protein was captured onto flow cell 1 which was used as a reference surface. […] After each analyte injection, dissociation was monitored for 5 minutes followed by regeneration of all flow cells with three 60-second injections of 75 mM phosphoric acid. […] For kinetic analysis, the double-referenced sensorgrams were fit globally to a simple 1:1 Langmuir with mass transport binding model using Biacore T200 Evaluation Software version 2.0. For steady-state affinity analysis, the double-referenced equilibrium binding responses were fit with a 1:1 Langmuir steady-state model using Biacore T200 Evaluation Software version 2.0.

human IL-15Rα = molecular target: T2, human IL-15Rα (human, UniProt Q13261 31-205, limits assumed); assay: SPR 37C, fusion captured by anti-human Fc
T2 construct: also called hIL-15Rα; IL-15 receptor alpha
Procedure: as §1, §2

T2 sequence (Q13261 31-205 limits assumed): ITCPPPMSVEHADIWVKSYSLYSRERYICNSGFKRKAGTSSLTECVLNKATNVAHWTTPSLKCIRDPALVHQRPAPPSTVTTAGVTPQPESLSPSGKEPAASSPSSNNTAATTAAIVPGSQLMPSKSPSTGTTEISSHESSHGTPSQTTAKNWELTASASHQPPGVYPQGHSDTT

Kd (human IL-2Rβ) | binding result (human IL-15Rα) | Binder
> 3000 nM | no binding (tested: 3000 nM) | xmPD-1-hIL15 V49R/E46G/E64Q/D30N/M109A (other, not restated for this mutant) heavy 1: HHHHHHHHGGGGSGSGGEVQLVESGGGLVKPGGSLELSCAASGFTFSSYWMSWVRQAPEKGLEWVAAISPSGGSTYYADSVKGRFTISRDNAKNTLFLQMTSLRSEDTAMYYCAKESWGAYYDLWGQGTTVTVSSASTKGPSVFPLAPCSRSTSESTAALGCLVKDYFPEPVTVSWNSGALTSGVHTFPAVLQSSGLYSLSSVVTVPSSNFGTQTYTCNVDHKPSNTKVDKTVERKCRVRCPRCPAPPVAGPSVFLFPPKPKDTLMISRTPEVTCVVVAVSHEDPEVQFNWYVDGVEVHNAKTKPREEQFNSTFRVVSVLTVVHQDWLNGKEYKCKVSNKGLPSSIEKTISKTKGQPREPQVYTLPPSREEMTKNQVSLTCLVKGFYPSDIAVEWESNGQPENNYKTTPPMLDSDGSFFLYSRLTVDKSRWQQGNVFSCSVMHEALHNHYTQKSLSLSPGK heavy 2: EVQLVESGGGLVKPGGSLELSCAASGFTFSSYWMSWVRQAPEKGLEWVAAISPSGGSTYYADSVKGRFTISRDNAKNTLFLQMTSLRSEDTAMYYCAKESWGAYYDLWGQGTTVTVSSASTKGPSVFPLAPCSRSTSESTAALGCLVKDYFPEPVTVSWNSGALTSGVHTFPAVLQSSGLYSLSSVVTVPSSNFGTQTYTCNVDHKPSNTKVDKTVERKCEVECPECPAPPVAGPSVFLFPPKPKDTLMISRTPEVTCVVVAVSHEDPEVQFNWYVDGVEVHNAKTKPREEQFNSTFRVVSVLTVVHQDWLNGKEYKCKVSNKGLPSSIEKTISKTKGQPREPQVYTLPPSREEMTKNQVSLTCEVKGFYPSDIAVEWESNGQPENNYKTTPPMLDSDGSFFLYSKLTVDKSRWQQGNVFSCSVMHEALHNHYTQKSLSLSPGSGGGGGTSATATPGANWVNVISDLKKIEDLIQSMHIDATLYTESNVHPSCKVTAMKCFLLGLQRISLESGDASIHDTVQNLIILANNSLSSNGNVTESGCKECEELEEKNIKEFLQSFVHIVQAFINT light: DIVMTQSPSSLSVSAGDKVTMSCRASQGISSWLAWYQQKPWQPPKLLIYKASTLESGVPDRFTGSGSGTDFTLTISSVQAEDLAVYYCQQSYSTPWTFGGGTKLEIKGTVAAPSVFIFPPSDEQLKSGTASVVCLLNNFYPREAKVQWKVDNALQSGNSQESVTEQDSKDSTYSLSSTLTLSKADYEKHKVYACEVTHQGLSSPVTKSFNRGEC
> 1500 nM |  | xmPD-1-hIL15 V49R/E46G/N1G/N4Q/D30N (other) heavy 1: EVQLVESGGGLVKPGGSLELSCAASGFTFSSYWMSWVRQAPEKGLEWVAAISPSGGSTYYADSVKGRFTISRDNAKNTLFLQMTSLRSEDTAMYYCAKESWGAYYDLWGQGTTVTVSSASTKGPSVFPLAPSSKSTSGGTAALGCLVKDYFPEPVTVSWNSGALTSGVHTFPAVLQSSGLYSLSSVVTVPSSSLGTQTYICNVNHKPSNTKVDKKVEPKSCDKTHTCPPCPAPEAAGAPSVFLFPPKPKDTLMISRTPEVTCVVVDVSHEDPEVKFNWYVDGVEVHNAKTKPREEQYNSTYRVVSVLTVLHQDWLNGKEYKCKVSNKALPAPIEKTISKAKGQPREPQVYTLPPCREEMTKNQVSLSCAVKGFYPSDIAVEWESNGQPENNYKTTPPVLDSDGSFFLVSKLTVDKSRWQQGNVFSCSVMHEALHNHYTQKSLSLSPGSGGGGSGGGGSGGGGGWVQVISDLKKIEDLIQSMHIDATLYTESNVHPSCKVTAMKCFLLGLQRISLESGDASIHDTVENLIILANNSLSSNGNVTESGCKECEELEEKNIKEFLQSFVHIVQMFINTS heavy 2: EVQLVESGGGLVKPGGSLELSCAASGFTFSSYWMSWVRQAPEKGLEWVAAISPSGGSTYYADSVKGRFTISRDNAKNTLFLQMTSLRSEDTAMYYCAKESWGAYYDLWGQGTTVTVSSASTKGPSVFPLAPSSKSTSGGTAALGCLVKDYFPEPVTVSWNSGALTSGVHTFPAVLQSSGLYSLSSVVTVPSSSLGTQTYICNVNHKPSNTKVDKKVEPKSCDKTHTCPPCPAPEAAGAPSVFLFPPKPKDTLMISRTPEVTCVVVDVSHEDPEVKFNWYVDGVEVHNAKTKPREEQYNSTYRVVSVLTVLHQDWLNGKEYKCKVSNKALPAPIEKTISKAKGQPREPQVCTLPPSREEMTKNQVSLWCLVKGFYPSDIAVEWESNGQPENNYKTTPPVLDSDGSFFLYSKLTVDKSRWQQGNVFSCSVMHEALHNHYTQKSLSLSPGK light: DIVMTQSPSSLSVSAGDKVTMSCRASQGISSWLAWYQQKPWQPPKLLIYKASTLESGVPDRFTGSGSGTDFTLTISSVQAEDLAVYYCQQSYSTPWTFGGGTKLEIKGTVAAPSVFIFPPSDEQLKSGTASVVCLLNNFYPREAKVQWKVDNALQSGNSQESVTEQDSKDSTYSLSSTLTLSKADYEKHKVYACEVTHQGLSSPVTKSFNRGEC
> 3000 nM | no binding (tested: 3000 nM) | xmPD-1-hIL15Rasu-hIL15(E64Q/D30N/I68S) (other, not restated for this mutant) heavy 1: HHHHHHHHGGGGSGSGGEVQLVESGGGLVKPGGSLELSCAASGFTFSSYWMSWVRQAPEKGLEWVAAISPSGGSTYYADSVKGRFTISRDNAKNTLFLQMTSLRSEDTAMYYCAKESWGAYYDLWGQGTTVTVSSASTKGPSVFPLAPCSRSTSESTAALGCLVKDYFPEPVTVSWNSGALTSGVHTFPAVLQSSGLYSLSSVVTVPSSNFGTQTYTCNVDHKPSNTKVDKTVERKCRVRCPRCPAPPVAGPSVFLFPPKPKDTLMISRTPEVTCVVVAVSHEDPEVQFNWYVDGVEVHNAKTKPREEQFNSTFRVVSVLTVVHQDWLNGKEYKCKVSNKGLPSSIEKTISKTKGQPREPQVYTLPPSREEMTKNQVSLTCLVKGFYPSDIAVEWESNGQPENNYKTTPPMLDSDGSFFLYSRLTVDKSRWQQGNVFSCSVMHEALHNHYTQKSLSLSPGK heavy 2: EVQLVESGGGLVKPGGSLELSCAASGFTFSSYWMSWVRQAPEKGLEWVAAISPSGGSTYYADSVKGRFTISRDNAKNTLFLQMTSLRSEDTAMYYCAKESWGAYYDLWGQGTTVTVSSASTKGPSVFPLAPCSRSTSESTAALGCLVKDYFPEPVTVSWNSGALTSGVHTFPAVLQSSGLYSLSSVVTVPSSNFGTQTYTCNVDHKPSNTKVDKTVERKCEVECPECPAPPVAGPSVFLFPPKPKDTLMISRTPEVTCVVVAVSHEDPEVQFNWYVDGVEVHNAKTKPREEQFNSTFRVVSVLTVVHQDWLNGKEYKCKVSNKGLPSSIEKTISKTKGQPREPQVYTLPPSREEMTKNQVSLTCEVKGFYPSDIAVEWESNGQPENNYKTTPPMLDSDGSFFLYSKLTVDKSRWQQGNVFSCSVMHEALHNHYTQKSLSLSPGSGGGGGTSATATPGAITCPPPMSVEHADIWVKSYSLYSRERYICNSGFKRKAGTSSLTECVLNKATNVAHWTTPSLKCIRDPALVHQRPAPPSGGSGGGGSGGGSGGGGSGGNWVNVISDLKKIEDLIQSMHIDATLYTESNVHPSCKVTAMKCFLLELQVISLESGDASIHDTVQNLISLANNSLSSNGNVTESGCKECEELEEKNIKEFLQSFVHIVQMFINT light: DIVMTQSPSSLSVSAGDKVTMSCRASQGISSWLAWYQQKPWQPPKLLIYKASTLESGVPDRFTGSGSGTDFTLTISSVQAEDLAVYYCQQSYSTPWTFGGGTKLEIKGTVAAPSVFIFPPSDEQLKSGTASVVCLLNNFYPREAKVQWKVDNALQSGNSQESVTEQDSKDSTYSLSSTLTLSKADYEKHKVYACEVTHQGLSSPVTKSFNRGEC
